Test results from the domain aggregation screens of Martell et al. (2025).

Test: soluble fraction after stress (log2 fold change); higher = more stays soluble; pooled small domains, quantitative proteomics
Conditions: stress: pH 4
Method in brief: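 How much of each domain stays soluble after acid stress, expressed as a fold change, is used to gauge aggregation propensity. Pooled custom libraries of small domains underwent pH 4 stress before high-throughput quantitative proteomics. A higher log2 value means more of the domain stayed soluble.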

First: HMAVNDPDEKFIELGIPADWVQVVRKAGFQTVEALKTVENPNKLHQELSGLNKKMKLGLKTLSQDEVKDWF
Second: HMGEWNSVFSVPSSVVDKHLKTASSVYVKVLLVILRNAGNRISDQQISEQLSVPVDEVQEAIRYWNAAGIF
The “soluble fraction (log2)” value of the first is higher: -0.0206 for the first, -0.816 for the second.

First: HMPDPLVEIRSAVHSNYAGMIAMLGADNRVYLGREEHYSYQDGQPGQYDNRDGSLLFVSDQPDIYYFL
Second: HMGAAAQLLHAVVLRVPAEDTMKFVSETPELRRYLGAPLGPTAALVRPGQEQELAAALQAHGILVEFDE
The “soluble fraction (log2)” value of the first is lower: -1.21 for the first, 0.12 for the second.

First: HMEPALYRLFMAHPELNASAVARRLGIAQSLLAQYISGSKKPSPERERMILTEIHKIGEELATAS
Second: HMNEISLKEITIEEDHPWRDKKIKELDLKEHILVAMIRRKDQDIIPNGETKIYKDDILVIYD
The “soluble fraction (log2)” value of the first is higher: 0.102 for the first, -1.73 for the second.

Going from “HMIERKLRKKEHFIASVGEKVKIKNFATETYKGELISADNEKVVVETEFGKEEITYDNILAAATYFE” to “HMWSLLVILQLREGGQRFSQLQRAIPDISQRMLTQTLRKLERDGLVSRKVTPSTPPRVDYAITELGH”, the “soluble fraction (log2)” value rises from -1.01 to -0.556.

Compared with “HMSSFFLIDVSQVRIGMYIQLDVGWMRHPFPVNSFRITNQEQLDTLRSLNLAQVRWSPAKSDL”, “HMVDEAQSLERNVLLTVLSRIGRDSRVVLTHDIAQRDNLRVGRHDGVVAVVDRLKGHPLFAHVTL” is higher in “soluble fraction (log2)” value: -1 for the first, -0.0346 for the second.

Compared with “HMNDPIGDMLTRIRNAQMRGKSTVSTPASKLRAWVLEVLASEGYIRGFERATTDNGQGELVISLD”, “HMTIAEGLIFRFTEPFKPIDQYTYYIMGDNKVEQIPNFKTLEVMLAQRNQNYLSVRVIEKSQLDDILKEF” is lower in “soluble fraction (log2)” value: -0.253 for the first, -1.73 for the second.

Compared with “HMTDYKTNLQEFLQQDGEVEIEYKLLAEVGPSHARQFEVDVMMGDRVLGSGVGRNKKAAEQAAAKVALSKL”, “HMAKETLRANIKDYIQKQIASGVYRPGDRIVETQLAREMNVSQAPVREAILELVSLGLLEERPYSGHMVRQ” is lower in “soluble fraction (log2)” value: -0.375 for the first, -0.843 for the second.

“HMADVIKLVNTSVLNVRSGAGINYSKIGSLTQGTKVNIISESNGWSKINYNGKIGYISSQYVSEVS” and “HMDSAVLQKHLVKLIELHAPIKARNLAKILADEFGKHVDRSAVNSALYSLKAERKVEVNSSYEWSLD” are within 0.2 log units of each other in “soluble fraction (log2)” value: 0.324 for the first, 0.252 for the second.

Compared with “HMHPELSDSQRTLIALMASGLKDEAIAVEMGVGARTVRRKVQELYELLGVRTRFQAGVAANQRGW”, “HMKEPQLGPVRKWSDQTGNFGIEAQFVKREGDNILLKRADQRTISIPLEKLSDADQEHLKQEEQKQAME” is higher in “soluble fraction (log2)” value: -0.606 for the first, -0.312 for the second.

Going from “HMETYNLDVGDSAVLQYQNVSRISVGNPDVLDAIPLDKSQILLTGKATGGAALIVWDSKGMHMEKVMVHPA” to “HMQTMNKTNISNFEKYLNSGDVSEVIVVRNKSSVRVTLTPEALRSSEHQAVVGKNILGQENIKGPHYQFEV”, the “soluble fraction (log2)” value rises from -0.152 to 0.138.

Compared with “HMQRLSRREIEVLHWIAEGKSDWQIGQILSISAKTVNYHTENLKRKFGVATRMQAVVSAIKQGAFVPGE”, “HMNRNHVFDSNGPDLRLRGTAQQLFEKYLQLGRDATSGGDRVMAEGYFQHAEHYFRILNAMNQAAMQH” is higher in “soluble fraction (log2)” value: -1.31 for the first, -0.0835 for the second.

Compared with “HMTGSTSVAQVSTPSGSLNLRAYASTSARVLLQIPEYAFVTVYNRGATWSYVSYNGVSGYVMSVYLSFGG”, “HMIGELVVEDLAAASEINVDTIRYYQRLGLLEPPRRRGRRAVYDHTHLERLAEIRRLAGAGFTLAQIGRLK” is lower in “soluble fraction (log2)” value: -0.846 for the first, -1.23 for the second.

Going from “HMFYPIAHTLTKLNIRSGPGEQYQKLATFENNHDLVVLTQQNEWVQVRGKSDEQVIIGWVHSSFLSPT” to “HMDITTIIADVPGPKTQIKVDIKNTSLHIFGGMNFKKEIDIGDNKEIINIKYINGTLTVKLKT”, the “soluble fraction (log2)” value rises from -1.33 to -0.466.

Compared with “HMTVSIDSLFDKFEDLQEQGLGDKTEEGQELRGLIRAFIEQEHLSVRITRSTSNQELLDMIEEAMQ”, “HMGEENLKYPLLTDGSVKTTVLEAIDKDEKWLREELAKQGYDDLSKLFLVDYLGGQLVVTPY” is lower in “soluble fraction (log2)” value: -0.551 for the first, -0.887 for the second.

Going from “HMNTQGWEIFEGRITTADTDLNPSGWIRIDGQRIFVISDAGFIDKGKEVSILSVDGNRVLVRK” to “HMTLDVALSKEIKYMLKEEHYLPGDKLPSERKLAELFHVQRLTVRGALNLLLQDKTIISKPRSGYYVAPKR”, the “soluble fraction (log2)” value rises from -0.632 to 0.225.

“HMPLKLIDVYLGRHGKKRYDVFKETGLSQQTLASANGKPAAALTGRILQAIGRTVGETPGRVLDEMLMIEQ” and “HMKTTVEVSPIARPGAVASGSVKFGSGVTAEWMLDQYGRLGLDKPTGKPTEQDIKEFQIELQKAL” are within 0.2 log units of each other in “soluble fraction (log2)” value: 0.0887 for the first, 0.122 for the second.

First: HMSETTSRVLQLLGLLQARRVWTGQELADRLGVTGRSVRRDIERLRDLGYPVHASKGRDGGYQLGA
Second: HMQKAEQIGSLLREKRKSMGLTQDELAQQVEVRRQTLADLELGKNVGSHLLIKVMEHLGVGFDLL
The “soluble fraction (log2)” value of the first is higher: -0.222 for the first, -0.962 for the second.

Going from “HMGLLGTDISAETMIGYFKKIDLGFDEETQEVIVPSWRQDLLRDADIAEEVARFYGYDNIPTTLPSGEST” to “HMIPSGISEHPISKLPLSMSIIHRLELAGIKTIGDITGENFSRLQEIPRIGKVTAKRILEAIQSYSEQLP”, the “soluble fraction (log2)” value rises from -0.736 to -0.273.

“HMNTLGTNIAKLRESQKLTQEELGKLSGVSRVSIYKIETGQSTPRDTTLQNIAEALHTTPSALRS” and “HMTPKVDLTVAEDGSASAVIAGLRVEIDAAGKVTAVAPADGTTDLSSVAPEAVKEAMDNALAAYTASKG” are within 0.2 log units of each other in “soluble fraction (log2)” value: 0.22 for the first, 0.167 for the second.

First: HMSAEKPVKSELFYKSMLNSFEQAVRFMIANGILEDFKSRIVAINNETNHQNWFNKQEFNAIIERF
Second: HMSSADIPFSRFIDDVEAQRVEKVTIDGVNVTGRYRSDGAAFKTIIPSQYDGLVPILRQNKVDITVKDA
The “soluble fraction (log2)” value of the first is lower: -0.032 for the first, 0.41 for the second.

Compared with “HMTESLVITVDPALHGLRLDRGLADALPDRSRSEVQRWIKEGRVQLHGAPAKPSLKLAAGDIVTIALPEE”, “HMAPEPFIVQITASSLNVRKGPGTSYAVAQTVSKGQVFTIVQQQGGWGKLKSGAGWISLKYTAR” is lower in “soluble fraction (log2)” value: 0.236 for the first, -0.0269 for the second.

Going from “HMVVYQRVHDEILQALKDNVYPVGTLLPPEPELERIYSVSRTTVRRAIAKLSEEGYVQVRQGYGTMVLKN” to “HMNNDIDRVFAELTVLSQKKGYLVFDDIEKGTEDLSVNEVDWLTNRLLTSGVEIFDDVPDTIK”, the “soluble fraction (log2)” value falls from 0.22 to -1.81.

First: HMRSPVDALSNRELQVLQMVGRGLSSRQVAEALHLSVKTVEAHRQRIKGKLGLRTGAQLVQFAANWVTG
Second: HMSEKAQSENEDLIKILALLIHAAKIDENYSEKEKKLIISFAEMSSNKKLDREQINSLVDKAEQYEK
The “soluble fraction (log2)” value of the first is higher: -0.182 for the first, -0.507 for the second.

First: HMEWNREQLEQIVLQHIRKHGFITRATYTELTGRLKNSALADLKSFAAEGIIKRVGRGNQMHFIVPL
Second: HMFRSNAERAAHLASALPRAEAELAALQARGAATSENIYLRSSYFDALRYTEELRAAKRAQDALQGA
The “soluble fraction (log2)” value of the first is higher: 0.221 for the first, 0.0123 for the second.

“HMLISKNLLGFTIKNTSGVTFGTLKDIMWLPSNDVYVIDNNGKEYLIPVISEIVKSINYDKGSITIFP” and “HMKAQLQHIIGSNIKLARNTQGYTQEGLAERAEISVEHLKQVERGKKMLSVESLVNVANALQVSVDSLV” are within 0.2 log units of each other in “soluble fraction (log2)” value: -0.398 for the first, -0.205 for the second.

Compared with “HMEYFDDEELDRYKGRTSDSFTDDEAEEFREVMMTMHPEEVKAWNRSLILRDVAMPDQIKDDYIMLAG”, “HMAKTALEQAQAMVAAYVAAEQQILLGKEVRMGGPGIDRWLRFEDLQEVRAGRKEWESTVTRLQNTAA” is higher in “soluble fraction (log2)” value: -2.41 for the first, -0.769 for the second.

Going from “HMYEIEDIKEKLLDLLANSKTGFSGLEISNRLGINRITVSKYLNIFSAEGLIKQKNIGNVIIWFVEDGIE” to “HMNTLPASVQPKKGRLYAVIQTKENGKSKPVWRSLGLPEGSNKSKVNKAFREVVKQFEEEYAERLAR”, the “soluble fraction (log2)” value rises from -0.791 to 0.22.

In the case of “HMENIEVDFGVGDTVSVIGGAWKDTVGVVQAMNPNKQSLTINVELFGRETPVEISFTDVQKM”, the “soluble fraction (log2)” value is reported as -0.962.
